# Values of other authors as cited in PMC3587688.
# Biological target: ephrin-B2 (Homo sapiens) (UniProt P52799)
# Sequence (P52799 28-333): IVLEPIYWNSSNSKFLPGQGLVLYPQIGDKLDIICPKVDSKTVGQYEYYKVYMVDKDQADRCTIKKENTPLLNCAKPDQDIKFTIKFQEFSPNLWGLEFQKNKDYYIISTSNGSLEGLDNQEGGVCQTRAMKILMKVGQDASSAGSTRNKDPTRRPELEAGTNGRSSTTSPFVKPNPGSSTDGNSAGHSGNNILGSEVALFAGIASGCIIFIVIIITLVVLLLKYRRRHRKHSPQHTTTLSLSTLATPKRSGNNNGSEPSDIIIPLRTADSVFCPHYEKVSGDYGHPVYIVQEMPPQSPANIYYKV
# HeV-G, sequence (O89343 whole entry): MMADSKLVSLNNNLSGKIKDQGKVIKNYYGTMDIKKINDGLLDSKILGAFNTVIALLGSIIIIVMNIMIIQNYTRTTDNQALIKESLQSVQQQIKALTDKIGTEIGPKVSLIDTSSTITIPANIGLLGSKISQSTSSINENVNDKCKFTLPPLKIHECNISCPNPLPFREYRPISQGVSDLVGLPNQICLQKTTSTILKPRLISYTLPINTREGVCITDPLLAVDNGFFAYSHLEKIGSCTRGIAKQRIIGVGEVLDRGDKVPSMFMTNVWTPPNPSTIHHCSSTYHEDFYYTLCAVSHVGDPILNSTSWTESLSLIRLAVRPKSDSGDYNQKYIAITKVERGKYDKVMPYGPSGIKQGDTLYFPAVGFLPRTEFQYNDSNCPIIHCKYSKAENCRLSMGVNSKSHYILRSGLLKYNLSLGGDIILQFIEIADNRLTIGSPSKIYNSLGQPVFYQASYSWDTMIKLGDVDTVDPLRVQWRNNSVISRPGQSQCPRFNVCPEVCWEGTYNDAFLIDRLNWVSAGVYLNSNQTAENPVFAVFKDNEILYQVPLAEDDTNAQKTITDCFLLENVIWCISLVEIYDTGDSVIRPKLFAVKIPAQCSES
substance,measurement,value
HeV-G (from UniProt O89343),Kd,570 pM
